Data taken from US20220177576A1 (DENALI THERAPEUTICS, published 2022).

Target: T1, human TREM2 expressed on HEK293-H6 cells (human, UniProt Q9NZC2 19-230)
T1 construct: Wild type human TREM2 stably co-expressed with DAP12 in HEK 293 cells (clone HEK293-H6); also called Human TREM2 HEK; TREM2 expressed by HEK293-H6 cells
T1 sequence: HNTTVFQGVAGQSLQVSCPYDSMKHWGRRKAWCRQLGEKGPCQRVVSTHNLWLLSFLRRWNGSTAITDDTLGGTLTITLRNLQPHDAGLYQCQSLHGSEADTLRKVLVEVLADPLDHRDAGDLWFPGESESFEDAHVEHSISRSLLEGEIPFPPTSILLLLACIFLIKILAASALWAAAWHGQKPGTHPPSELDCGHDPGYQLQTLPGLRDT
Test: flow cytometry, dose titration on HEK 293 cells expressing human TREM2 (TREM2-expressing HEK)
Protocol: After incubation, the cells were centrifuged and washed in FACS buffer (PBS+0.5% BSA) twice. Mixed cells were resuspended in FACS buffer with human Trustain FcX solution (Biolegend, Catalog No. 422302) at a density of 10⁶/mL per cell line. The mixed cell lines were seeded at 200,000 cells per well in a 96-well round-bottom plate and incubated for 20 minutes at room temperature. After incubation, the cells were centrifuged and incubated with a dose titration of anti-TREM2 antibodies for 45 minutes on ice. After incubation, the cells were centrifuged and washed with FACS buffer three times. The cells were then incubated with secondary antibody (Alexa Fluor 647 AffiniPure F(ab′)2 Fragment Goat Anti-human IgG(H+L), Jackson ImmunoResearch Laboratories, Catalog No. 109-606-088, 1:800 dilution) for 30 minutes on ice. After incubation, the cells were washed with FACS buffer three times, resuspended in 100 μL of FACS buffer, and analyzed by flow cytometry (BD FACSCanto II, San Jose, Calif.), for which 30,000 events were obtained for each sample. Mean fluorescence intensity per cells were calculated by FlowJo software and used for generating dose response binding curve.

B1: TREM2 Ab (antibody, human IgG1, kappa, L234A L235A, V domains shown)
VH: EVQLVESGGGLVQPGGSLRLSCAASGFTFTDFYMSWVRQAPGKGLEWVSVIRNKANAYTAGYNPSVKGRFTISRDNSKNTLYLQMNSLRAEDTAVYYCARLTYGFDYWGQGTLVTVSS
VL: DIVMTQTPLSLPVTPGEPASISCQSSKSLLHSTGKTYLNWYLQKPGQSPQLLIYWMSTRASGVPDRFSGSGSGTDFTLKISRVEAEDVGVYYCQQFLEYPFTFGQGTKVEIKR
notes: also called corresponding anti-TREM2 antibody; TREM2 IgG
  EC50 (read off the curve): ~0.4 nM
